Consider 14 molecules from publication doi:10.1101/2021.01.13.426364 (bioRxiv, 2021).

The target of data set [1] is T1, Variant Surface Glycoprotein VSG2 on living VSG2-expressing bloodstream form trypanosomes (Trypanosoma brucei, UniProt P26332). The data set is described as follows: Western blot of washed cells after incubation with nanobody. For orientation: A western blot detects proteins with antibodies after separation by electrophoresis.
Data set [2] concerns the target T2, Variant Surface Glycoprotein VSG2, soluble purified form (Trypanosoma brucei, UniProt P26332). Put plainly: crystal structure.
Data set [3] has as its target T1, Variant Surface Glycoprotein VSG2 on …. Put plainly: flow cytometry on cells. In general terms: Flow cytometry measures light scatter and fluorescence of single cells or particles in a stream.
Data set [4] addresses T2, Variant Surface Glycoprotein VSG2, …. Put plainly: SEC.
Data set [5] deals with the molecule itself. Put plainly: crystal structure.

Changes are numbered by the printed parent chain. In names and notes the source's numbering stands.

B1: NB9_(VSG2) (VHH)
VHH: QVQLQESGGGLVQAGGSLRLSCTTSGLTFSNYAFSWFRQAPGEEREFVGAISWSGGRTDYADSVKGRFTISRDNAKNTFYLQMNSLKTEDTAVYYCAADLLGEGSRRSEYEYWGQGTQVTVSS
B1: the binding result in data set [1] and in data set [2] was “binds” each time.

B2: NB9_(VSG2) sortagged with FAM (VHH)
VHH: B1 VHH
As for B2, in data set [3], the binding result was “binds”.

B3: NB14_(VSG2) sortagged with FAM (VHH)
VHH: QVQLQESGGGLVQAGGSLRLSCEASGLTFSNYAMAWFRQAPEKEREFVAGISWTGSRTYYADSVRGRFTTSRDGHKNTVYLQMNDLKPEDTAVYLCAADLLGSGKDGTSVYEYWGQGTQVTVSS
B3: the binding result in data set [3] is “binds”.

B4: NB14_(VSG2) (VHH)
VHH: B3 VHH
Take B4: the binding result in data set [1] and in data set [2] was “binds” in each case.

B5: NB19_(VSG2) sortagged with FAM (VHH)
VHH: QVQLQESGGGLVQAGGSLRLSCAASERTFSSLGMGWFRQGPGKEREFAAAISWSGVSTYYADSVKGRFTISRDNDKNTVYLQMNSLKPDDTAVYYCAATSSWNDMALKSAGWYEYWGQGTQVTVSS
On to B5, for which the binding result in data set [3] is given as “binds”.

B6: NB19_(VSG2) mutant E114/Y115A (VHH)
VHH: B5 VHH with E114A, Y115A
For the molecule B6, the binding result in data set [4] is given as “no binding”.

B7: NB19_(VSG2) (VHH)
VHH: B5 VHH
On to B7, for which the binding result in data set [4] and in data set [1] was “binds” in each case.

B8: NB19_(VSG2) mutant Y115A (VHH)
VHH: B5 VHH with Y115A
For the molecule B8, the binding result in data set [4] is reported as “no binding”.

B9: NB19_(VSG2) mutant E114A (VHH)
VHH: B5 VHH with E114A
In the case of B9, the binding result in data set [4] is “no binding”.

B10: NB11_(VSG2) mutant L100A (VHH)
VHH: QVQLQESGGGLVQAGGSLTLSCAVSGLTFSNYAMGWFRQAPGKEREFVAAITWDGGNTYYTDSVKGRFTISRDNAKNTVFLQMNSLKPEDTAVYYCAAKALGSSRYELALAGYDYWGQGTQVTVSS
For B10, the binding result in data set [4] was “binds”.

B11: NB11_(VSG2) triple mutant L100/L101/S103 (VHH)
VHH: B10 VHH with L101A, S103A
Consider B11, for which, in data set [4], the binding result is listed as “no binding”.

B12: NB11_(VSG2) mutant L101A (VHH)
VHH: B10 VHH with A100L, L101A
With B12, the binding result in data set [4] is “binds”.

B13: NB11_(VSG2) mutant S103A (VHH)
VHH: B10 VHH with A100L, S103A
For B13, the binding result in data set [4] was “binds”.

B14: Variant Surface Glycoprotein VSG2, soluble purified form (natural protein, Trypanosoma brucei, UniProt P26332 27-459, looked up)
chain: AAEKGFKQAFWQPLCQVSEELDDQPKGALFTLQAAASKIQKMRDAALRASIYAEINHGTNRAKAAVIVANHYAMKADSGLEALKQTLSSQEVTATATASYLKGRIDEYLNLLLQTKESGTSGCMMDTSGTNTVTKAGGTIGGVPCKLQLSPIQPKRPAATYLGKAGYVGLTRQADAANNFHDNDAECRLASGHNTNGLGKSGQLSAAVTMAAGYVTVANSQTAVTVQALDALQEASGAAHQPWIDAWKAKKALTGAETAEFRNETAGIAGKTGVTKLVEEALLKKKDSEASEIQTELKKYFSGHENEQWTAIEKLISEQPVAQNLVGDNQPTKLGELEGNAKLTTILAYYRMETAGKFEVLTQKHKPAESQQQAAETEGSCNKKDQNECKSPCKWHNDAENKKCTLDKEEAKKVADETAKDGKTGNTNTTGSS
Take B14: the binding result in data set [5] is “binds”.
